The record followed here is US20030087819.

This data set addresses T1, synthetic apoA-IMilano peptide 167-R173C-184.
T1 chain: SDELRQCLAARLEALKEN

B1: recombinant human LCAT enzyme (Lecithin:Cholesterol Acyltransferase) (protein)
chain: FWLLNVLFPPHTTPKAELSNHTRPVILVPGCLGNQLEAKLDKPDVVNWMCYRKTEDFFTIWLDLNMFLPLGVDCWIDNTRVVYNRSSGLVSNAPGVQIRVPGFGKTYSVEYLDSSKLAGYLHTLVQNLVNNGYVRDETVRAAPYDWRLEPGQQEEYYRKLAGLVEEMHAAYGKPVFLIGHSLGCLHLLYFLLRQPQAWKDRFIDGFISLGAPWGGSIKPMLVLASGDNQGIPIMSSIKLKEEQRITTTSPWMFPSRMAWPEDHVFISTPSFNYTGRDFQRFFADLHFEEGWYMWLQSRDLLAGLPAPGVEVYCLYGVGLPTPRTYIYDHGFPYTDPVGVLYEDGDDTVATRSTELCGLWQGRQPQPVHLLPLHGIQHLNMVFSNLTLEHINAILLGAYRQGPPASPTASPEPPPPE
Turning to B1, the “LCAT activation (esterification of [14C]cholesterol on a proteoliposome substrate), as a percentage of activation obtained with apoA-IWT” value was “failed in this regard”.
